Data as given in patent US20220227830A1, “QD DOSING OF GIP RECEPTOR AGONIST PEPTIDE COMPOUNDS AND USES THEREOF” (Takeda Pharmaceutical Company Limited, priority 2020, published 2022).
Starred links: 1 amine or outer side, 2 acyl side, 3 side chain; linkers in the order of their positions; H or OH if unused. Non-standard residues stand in square brackets, D forms with d. Groups on a side chain read outwards from the residue. No end group written: not given here. *: point of attachment. 2OEGgEgE‑C15DA = 2OEGgEgE-C15 diacid linker-lipid on the Lys side chain, O=C(O)CCCCCCCCCCCCCC(=O)N[C@@H](CCC(=O)N[C@@H](CCC(=O)NCCOCCOCC(=O)NCCOCCOCC(=O)*)C(=O)O)C(=O)O; 2OEGgE‑C16DA = O=C(O)CCCCCCCCCCCCCCC(=O)N[C@@H](CCC(=O)NCCOCCOCC(=O)NCCOCCOCC(=O)*)C(=O)O; C15 diacid = O=C(O)CCCCCCCCCCCCCC(=O)*; γGlu = O=C(O)[C@H](CCC(=O)[*:2])N[*:1]; NMeY = CN[C@@H](Cc1ccc(O)cc1)C(=O)O; AEEA = NCCOCCOCC(=O)O; Aib = CC(C)(N)C(=O)O

T1: full-length human GIPR with an N-terminal FLAG tag (human, UniProt P48546 22-466)
T1 sequence (looked up): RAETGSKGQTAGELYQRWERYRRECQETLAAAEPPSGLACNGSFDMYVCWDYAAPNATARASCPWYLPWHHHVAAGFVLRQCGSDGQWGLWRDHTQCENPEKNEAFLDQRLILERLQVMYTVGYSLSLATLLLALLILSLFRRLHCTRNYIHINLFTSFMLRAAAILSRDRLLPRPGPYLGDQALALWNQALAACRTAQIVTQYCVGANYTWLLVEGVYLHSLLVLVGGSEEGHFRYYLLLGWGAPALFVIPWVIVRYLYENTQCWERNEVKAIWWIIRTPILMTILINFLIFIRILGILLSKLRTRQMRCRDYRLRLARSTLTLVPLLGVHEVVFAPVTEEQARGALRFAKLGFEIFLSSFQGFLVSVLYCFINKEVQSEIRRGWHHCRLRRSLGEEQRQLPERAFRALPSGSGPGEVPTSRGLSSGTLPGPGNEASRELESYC

B1: Compound 115 (peptide)
peptide: [NMeY][Aib]EGTFISDYSI[Aib]K([AEEA-γGlu-γGlu-γGlu-C15 diacid])DR[Aib]AQ[Aib]NFVNWLLAQR-NH2
modifications: N-terminus assumed
SMILES: CC[C@H](C)[C@H](NC(=O)[C@H](Cc1ccccc1)NC(=O)[C@@H](NC(=O)CNC(=O)[C@H](CCC(=O)O)NC(=O)C(C)(C)NC(=O)[C@H](Cc1ccc(O)cc1)NC)[C@@H](C)O)C(=O)N[C@@H](CO)C(=O)N[C@@H](CC(=O)O)C(=O)N[C@@H](Cc1ccc(O)cc1)C(=O)N[C@@H](CO)C(=O)N[C@H](C(=O)NC(C)(C)C(=O)N[C@@H](CCCCNC(=O)COCCOCCNC(=O)CC[C@H](NC(=O)CC[C@H](NC(=O)CC[C@H](NC(=O)CCCCCCCCCCCCCC(=O)O)C(=O)O)C(=O)O)C(=O)O)C(=O)N[C@@H](CC(=O)O)C(=O)N[C@@H](CCCNC(=N)N)C(=O)NC(C)(C)C(=O)N[C@@H](C)C(=O)N[C@@H](CCC(N)=O)C(=O)NC(C)(C)C(=O)N[C@@H](CC(N)=O)C(=O)N[C@@H](Cc1ccccc1)C(=O)N[C@H](C(=O)N[C@@H](CC(N)=O)C(=O)N[C@@H](Cc1c[nH]c2ccccc12)C(=O)N[C@@H](CC(C)C)C(=O)N[C@@H](CC(C)C)C(=O)N[C@@H](C)C(=O)N[C@@H](CCC(N)=O)C(=O)N[C@@H](CCCNC(=N)N)C(N)=O)C(C)C)[C@@H](C)CC
B2: Compound 108 (peptide)
peptide: [NMeY][Aib]EGTFISDYSI[Aib]LDR[Aib]AQ[Aib]K(2OEGgEgE‑C15DA)FVNWLLAQR-NH2
modifications: N-terminus assumed
SMILES: CC[C@H](C)[C@H](NC(=O)[C@H](Cc1ccccc1)NC(=O)[C@@H](NC(=O)CNC(=O)[C@H](CCC(=O)O)NC(=O)C(C)(C)NC(=O)[C@H](Cc1ccc(O)cc1)NC)[C@@H](C)O)C(=O)N[C@@H](CO)C(=O)N[C@@H](CC(=O)O)C(=O)N[C@@H](Cc1ccc(O)cc1)C(=O)N[C@@H](CO)C(=O)N[C@H](C(=O)NC(C)(C)C(=O)N[C@@H](CC(C)C)C(=O)N[C@@H](CC(=O)O)C(=O)N[C@@H](CCCNC(=N)N)C(=O)NC(C)(C)C(=O)N[C@@H](C)C(=O)N[C@@H](CCC(N)=O)C(=O)NC(C)(C)C(=O)N[C@@H](CCCCNC(=O)COCCOCCNC(=O)COCCOCCNC(=O)CC[C@H](NC(=O)CC[C@H](NC(=O)CCCCCCCCCCCCCC(=O)O)C(=O)O)C(=O)O)C(=O)N[C@@H](Cc1ccccc1)C(=O)N[C@H](C(=O)N[C@@H](CC(N)=O)C(=O)N[C@@H](Cc1c[nH]c2ccccc12)C(=O)N[C@@H](CC(C)C)C(=O)N[C@@H](CC(C)C)C(=O)N[C@@H](C)C(=O)N[C@@H](CCC(N)=O)C(=O)N[C@@H](CCCNC(=N)N)C(N)=O)C(C)C)[C@@H](C)CC
B3: Compound 116 (peptide)
peptide: [NMeY][Aib]EGTFISDYSI[Aib]K([AEEA-AEEA-γGlu-C15 diacid])DR[Aib]AQ[Aib]DFVNWLLAQRPSSGAPPPS-NH2
modifications: N-terminus assumed
SMILES: CC[C@H](C)[C@H](NC(=O)[C@H](Cc1ccccc1)NC(=O)[C@@H](NC(=O)CNC(=O)[C@H](CCC(=O)O)NC(=O)C(C)(C)NC(=O)[C@H](Cc1ccc(O)cc1)NC)[C@@H](C)O)C(=O)N[C@@H](CO)C(=O)N[C@@H](CC(=O)O)C(=O)N[C@@H](Cc1ccc(O)cc1)C(=O)N[C@@H](CO)C(=O)N[C@H](C(=O)NC(C)(C)C(=O)N[C@@H](CCCCNC(=O)COCCOCCNC(=O)COCCOCCNC(=O)CC[C@H](NC(=O)CCCCCCCCCCCCCC(=O)O)C(=O)O)C(=O)N[C@@H](CC(=O)O)C(=O)N[C@@H](CCCNC(=N)N)C(=O)NC(C)(C)C(=O)N[C@@H](C)C(=O)N[C@@H](CCC(N)=O)C(=O)NC(C)(C)C(=O)N[C@@H](CC(=O)O)C(=O)N[C@@H](Cc1ccccc1)C(=O)N[C@H](C(=O)N[C@@H](CC(N)=O)C(=O)N[C@@H](Cc1c[nH]c2ccccc12)C(=O)N[C@@H](CC(C)C)C(=O)N[C@@H](CC(C)C)C(=O)N[C@@H](C)C(=O)N[C@@H](CCC(N)=O)C(=O)N[C@@H](CCCNC(=N)N)C(=O)N1CCC[C@H]1C(=O)N[C@@H](CO)C(=O)N[C@@H](CO)C(=O)NCC(=O)N[C@@H](C)C(=O)N1CCC[C@H]1C(=O)N1CCC[C@H]1C(=O)N1CCC[C@H]1C(=O)N[C@@H](CO)C(N)=O)C(C)C)[C@@H](C)CC
B4: Compound 118 (peptide)
peptide: [NMeY][Aib]EGTFISDYSI[Aib]LDR[Aib]K([AEEA-AEEA-γGlu-C15 diacid])Q[Aib]DFVNWLLAQR-NH2
modifications: N-terminus assumed
SMILES: CC[C@H](C)[C@H](NC(=O)[C@H](Cc1ccccc1)NC(=O)[C@@H](NC(=O)CNC(=O)[C@H](CCC(=O)O)NC(=O)C(C)(C)NC(=O)[C@H](Cc1ccc(O)cc1)NC)[C@@H](C)O)C(=O)N[C@@H](CO)C(=O)N[C@@H](CC(=O)O)C(=O)N[C@@H](Cc1ccc(O)cc1)C(=O)N[C@@H](CO)C(=O)N[C@H](C(=O)NC(C)(C)C(=O)N[C@@H](CC(C)C)C(=O)N[C@@H](CC(=O)O)C(=O)N[C@@H](CCCNC(=N)N)C(=O)NC(C)(C)C(=O)N[C@@H](CCCCNC(=O)COCCOCCNC(=O)COCCOCCNC(=O)CC[C@H](NC(=O)CCCCCCCCCCCCCC(=O)O)C(=O)O)C(=O)N[C@@H](CCC(N)=O)C(=O)NC(C)(C)C(=O)N[C@@H](CC(=O)O)C(=O)N[C@@H](Cc1ccccc1)C(=O)N[C@H](C(=O)N[C@@H](CC(N)=O)C(=O)N[C@@H](Cc1c[nH]c2ccccc12)C(=O)N[C@@H](CC(C)C)C(=O)N[C@@H](CC(C)C)C(=O)N[C@@H](C)C(=O)N[C@@H](CCC(N)=O)C(=O)N[C@@H](CCCNC(=N)N)C(N)=O)C(C)C)[C@@H](C)CC
B5: Compound 112 (peptide)
peptide: [NMeY][Aib]EGTFISDYSI[Aib]LDR[Aib]AQ[Aib]K([AEEA-γGlu-γGlu-γGlu-C15 diacid])FVNWLLAQK-NH2
modifications: N-terminus assumed
SMILES: CC[C@H](C)[C@H](NC(=O)[C@H](Cc1ccccc1)NC(=O)[C@@H](NC(=O)CNC(=O)[C@H](CCC(=O)O)NC(=O)C(C)(C)NC(=O)[C@H](Cc1ccc(O)cc1)NC)[C@@H](C)O)C(=O)N[C@@H](CO)C(=O)N[C@@H](CC(=O)O)C(=O)N[C@@H](Cc1ccc(O)cc1)C(=O)N[C@@H](CO)C(=O)N[C@H](C(=O)NC(C)(C)C(=O)N[C@@H](CC(C)C)C(=O)N[C@@H](CC(=O)O)C(=O)N[C@@H](CCCNC(=N)N)C(=O)NC(C)(C)C(=O)N[C@@H](C)C(=O)N[C@@H](CCC(N)=O)C(=O)NC(C)(C)C(=O)N[C@@H](CCCCNC(=O)COCCOCCNC(=O)CC[C@H](NC(=O)CC[C@H](NC(=O)CC[C@H](NC(=O)CCCCCCCCCCCCCC(=O)O)C(=O)O)C(=O)O)C(=O)O)C(=O)N[C@@H](Cc1ccccc1)C(=O)N[C@H](C(=O)N[C@@H](CC(N)=O)C(=O)N[C@@H](Cc1c[nH]c2ccccc12)C(=O)N[C@@H](CC(C)C)C(=O)N[C@@H](CC(C)C)C(=O)N[C@@H](C)C(=O)N[C@@H](CCC(N)=O)C(=O)N[C@@H](CCCCN)C(N)=O)C(C)C)[C@@H](C)CC

Tests used:
[1] = molecular target: T1, full-length human GIPR with an …; assay: cell-based or functional assay
[2] = molecular target: full-length human GLP-1R with an N-terminal FLAG tag (human, UniProt P43220 24-463); assay: cell-based or functional assay

Binder	Human GIPR cAMP, HEK293T EC50 [1] [nM]	Human GLP1R cAMP HEK293T EC50 [2] [nM]
B1	0.0005	437
[NMeY][Aib]EGTFISDYSIALDR[Aib]AQ[Aib]DFVNWLLAK(2OEGgE‑C15DA)RPSSGAPPPS-NH2 [Compound 109]	0.0005	832
B2	0.0005	41.7
[NMeY][Aib]EGTFISDYSIALDR[Aib]AQ[Aib]KFVNWLLAQR-NH2 (not fully specified (residue 21)) [Compound 121]	0.0003	5.5
[NMeY][Aib]EGTFISDYSI[Aib]LDRKAQ[Aib]NFVNWLLAQRPSSGAPPPS-NH2 (not fully specified (residue 17)) [Compound 122]	0.0004	20.4
B3	0.0003	339
[NMeY][Aib]EGTFISDYSI[Aib]LDR[Aib]KQ[Aib]DFVNWLLAQR-NH2 (not fully specified (residue 18)) [Compound 117]	0.0006	1000
[NMeY][Aib]EGTFISDYSIALDRIHQ[Aib]NFVNWLLK(2OEGgE‑C16DA)QK [Compound 10]	0.0006	955
[NMeY][Aib]EGTFISDYSIALDR[Aib]KQ[Aib]NFVNWLLAQSPSSGAPPPS-NH2 (not fully specified (residue 18, N-terminus)) [Compound 119]	0.0005	1000
[NMeY][Aib]EGTFISDYSIAK(2OEGgE‑C16DA)DR[Aib]AQ[Aib]NFVNWLLAQK [Compound 11]	0.0003	145
[NMeY][Aib]EGTFISDYSI[Aib]LDR[Aib]AQ[Aib]KFVNWLLAQRGGGGS-NH2 (not fully specified (residue 21)) [Compound 114]	0.0007	115
B4	0.0009	525
B5	0.0004	12
